Article PMC3931814, “Dehydroepiandrosterone Sulfate (DHEAS) Stimulates the First Step in the Biosynthesis of Steroid Hormones” (PLoS ONE, 2014)

Key:
Settings in all cases: both partners purified
[1] = target: T1, CYP11A1 (UniProt P00189 40-520); test: SPR; Biacore3000; CYP11A1 injected at 5-7.5 nM in HBS-EP buffer, at least three times each; bound CYP11A1 removed with 2 mM NaOH; in absence of cholesterol; Biaeval 4.1
T1 construct: CYP11A1 (cholesterol side-chain cleavage cytochrome P450); Single band at 55 kDa on SDS gel; Heme protein; also called recombinant CYP11A1; His-tagged CYP11A1; source: E. coli C43(DE3), co-transformed with groEL/groES chaperones, purified (IMAC Ni-NTA, SP-sepharose)
T1 sequence (looked up): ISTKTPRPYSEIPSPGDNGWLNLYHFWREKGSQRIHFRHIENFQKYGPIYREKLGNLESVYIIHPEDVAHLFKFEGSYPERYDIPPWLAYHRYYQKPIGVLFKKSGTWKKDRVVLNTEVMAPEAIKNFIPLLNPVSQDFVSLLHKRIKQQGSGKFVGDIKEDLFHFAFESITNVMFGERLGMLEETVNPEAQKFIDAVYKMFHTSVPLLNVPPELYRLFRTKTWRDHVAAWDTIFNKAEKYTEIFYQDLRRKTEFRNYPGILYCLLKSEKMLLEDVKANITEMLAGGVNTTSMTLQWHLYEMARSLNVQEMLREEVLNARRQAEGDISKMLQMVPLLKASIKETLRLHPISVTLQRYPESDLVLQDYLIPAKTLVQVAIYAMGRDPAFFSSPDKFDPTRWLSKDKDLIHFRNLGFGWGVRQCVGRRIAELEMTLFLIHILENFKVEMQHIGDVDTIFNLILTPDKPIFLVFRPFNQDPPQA

[2] = target: T1, CYP11A1; test: as above; design: scale not given here
[3] = target: T1, CYP11A1; test: SPR; Biacore3000; CYP11A1 injected at 5-7.5 nM in HBS-EP buffer; bound CYP11A1 removed with 2 mM NaOH; in the presence of cholesterol (CYP11A1:cholesterol 1:10 by the methods, 1:15 by the legend of Figure 7); Biaeval 4.1
[4] = target: T1, CYP11A1; test: as above; design: scale not given here
[5] = target: T1, CYP11A1; test: SPR; Biacore3000; CYP11A1 injected at 5-7.5 nM in HBS-EP buffer; bound CYP11A1 removed with 2 mM NaOH; in the presence of cholesterol and DHEAS (CYP11A1:cholesterol:DHEAS 1:10:50 by the methods, 1:15:75 by the legend of Figure 7); Biaeval 4.1

B1: bovine adrenodoxin (natural protein, UniProt P00257 59-186, looked up)
chain: SSSEDKITVHFINRDGETLTTKGKIGDSLLDVVVQNNLDIDGFGACEGTLACSTCHLIFEQHIFEKLEAITDEENDMLDLAYGLTDRSRLGCQICLTKAMDNMTVRVPDAVSDARESIDMGMNSSKIE
notes: adrenodoxin (Adx), bovine, the ferredoxin that transfers electrons to CYP11A1; [2Fe-2S] protein; also called Adx
**Q.** What does the source list for B1?
**A.** Kd [1]: 3.8 ± 0.55 nM; koff [2]: 2.4 ± 0.99 s⁻¹; Kd [3]: 3 ± 0.35 nM; koff [4]: 2.8 ± 0.09 s⁻¹; Kd [5]: 2.4 ± 0.05 nM
